The data set in a line: self-splicing fitness, log relative to wild type (ln ratio); higher = more splicing; Tetrahymena group I intron in knt gene, E. coli kanamycin selection, DiMSum; sequences stand for … in CUCUCU…GGAGGGAAAAGUUAUCAGGCAUGCACCUGGUAGCUAGUCUUUAAACCAAUAGAUUGCAUCGGUUUAAAAGGCAAGACCGUCAAAUUGCGGGAAAGGGGUCAACAGCCGUUCAGUACCAAGUCUCAGGGGAAACUUUGAGAUGGCCUUGCAAAGGGUAUGGUAAUAAGCUGACGGACAUGGUCCUAACCACGCAGCCAAGUCCUAAGUCAACAGAUCUUCUGUUGAUAUGGAUGCAGUUCACAGACUAAAUGUCGGUCGGGGAAGAUGUAUUCUUCUCAUAAGAUAUAGUCGGACCUCUCCUUAAUGGGAGCUAGCGGAUGAAGUGAUGCAACACUGGAGCCGCUGGGAACUAAUUUGUAUGCGAAAGUAUAUUGAUUAGUUUUGGAGUACUCGUGGUCG
The procedure, abridged:
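Pooled colonies went to amplicon sequencing on an Illumina HiSeq 2500 after six replicate transformations. The plates were LB agar with 100 μg/mL carbenicillin, 50 μM IPTG and 0.2% rhamnose, with or without 25 μg/mL kanamycin, incubated overnight at 37°C or 30°C. The E. coli BL21(DE3) library had all eight P1ex-region intron nucleotides randomised, the intron placed in the knt kanamycin-resistance gene on pET-22b(+). DiMSum fitness is the error-weighted combination of replicate fold changes, kanamycin against none, normalised to wild type.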

± gives the uncertainty stated by the source.

With GAGGAGCAAUAUUACGAGGC, the “self-splicing fitness (ln)” value (30 °C) is -3.47 ± 0.47.
On to GAGGAGCAAUAUUACGGAAU, for which, under “30 °C”, the “self-splicing fitness (ln)” value is -3.82 ± 0.37.
As for GAGGAGCAAUAUUACGGAGG, the “self-splicing fitness (ln)” value (37 °C) is -2.2 ± 0.24.
For GAGGAGCAAUAUUACGGGAA, the “self-splicing fitness (ln)” value is, setting by setting: (30 °C) -2.81 ± 0.26; (37 °C) -1.84 ± 0.46.
Take GAGGAGCAAUAUUACGGGAU: for the setting “30 °C”, the “self-splicing fitness (ln)” value was -2.69 ± 0.28.
As for GAGGAGCAAUAUUACGGUCU, the “self-splicing fitness (ln)” value by setting is: (30 °C) -3.51 ± 0.48; (37 °C) -0.511 ± 0.21.
On the same counts, the results for GAGGAGCAAUAUUACGUAAA are -3.86 ± 0.17 and -1.32 ± 0.13.
GAGGAGCAAUAUUACGUACC: the “self-splicing fitness (ln)” value was -0.85 ± 0.31 (30 °C) and -0.663 ± 0.27 (37 °C).
On the same counts, the results for GAGGAGCAAUAUUACGUAGU are -2.29 ± 0.19 and -2.19 ± 0.3.
For the sequence GAGGAGCAAUAUUACGUGAU, where the note is “37 °C”, the “self-splicing fitness (ln)” value is -2.02 ± 0.27.
On to GAGGAGCAAUAUUACGUGUC, for which the “self-splicing fitness (ln)” value reads like this: (30 °C) -3.51 ± 0.27; (37 °C) -1.91 ± 0.2.
Turning to GAGUAGCAAUAUUACGAAGU, the “self-splicing fitness (ln)” value is -2.93 ± 0.18 (30 °C) and -2.1 ± 0.15 (37 °C).
Consider GAGUAGCAAUAUUACGACCA, for which the “self-splicing fitness (ln)” value reads like this: (30 °C) -1.81 ± 0.12; (37 °C) 0.176 ± 0.15.
On the same counts, the results for GAGUAGCAAUAUUACGAGCC are -1.67 ± 0.2 and -1.26 ± 0.19.
For the sequence GAGUAGCAAUAUUACGAUUC, the “self-splicing fitness (ln)” value was -0.85 ± 0.18 (30 °C) and -0.0237 ± 0.24 (37 °C).
The corresponding values for GAGUAGCAAUAUUACGCAUC are -2.66 ± 0.32 and -2.17 ± 0.28.
On to GAGUAGCAAUAUUACGCGGA, for which the “self-splicing fitness (ln)” value is, setting by setting: (30 °C) -2.61 ± 0.17; (37 °C) -2.06 ± 0.17.
On the same counts, the results for GAGUAGCAAUAUUACGCUCG are -1.88 ± 0.28 and -0.561 ± 0.29.
The corresponding values for GAGUAGCAAUAUUACGCUGU are -3.36 ± 0.23 and -1.48 ± 0.22.
For GAGUAGCAAUAUUACGCUUA, the “self-splicing fitness (ln)” value by setting is: (30 °C) -1.45 ± 0.13; (37 °C) -0.422 ± 0.12.
On the same counts, the results for GAGUAGCAAUAUUACGGAGC are -2.75 ± 0.23 and -1.8 ± 0.27.
With GAGUAGCAAUAUUACGGAGU, the “self-splicing fitness (ln)” value runs as follows: (30 °C) -3.7 ± 0.27; (37 °C) -3.05 ± 0.19.
With GAGUAGCAAUAUUACGGAUA, the “self-splicing fitness (ln)” value was -2.11 ± 0.25 (30 °C) and -2.41 ± 0.25 (37 °C).
For GAGUAGCAAUAUUACGGCGC, the “self-splicing fitness (ln)” value is -0.602 ± 0.14 (30 °C) and 0.407 ± 0.19 (37 °C).
In the case of GAGUAGCAAUAUUACGGGCG, the “self-splicing fitness (ln)” value is -1.89 ± 0.12 (30 °C) and -0.779 ± 0.12 (37 °C).
The corresponding values for GAGUAGCAAUAUUACGGGGC are -2.79 ± 0.28 and -1.98 ± 0.33.
On the same counts, the results for GAGUAGCAAUAUUACGGGUU are -2.25 ± 0.14 and -1.81 ± 0.2.
On the same counts, the results for GAGUAGCAAUAUUACGGUGG are -3.37 ± 0.26 and -2.15 ± 0.18.
Regarding GAGUAGCAAUAUUACGUAAA, the “self-splicing fitness (ln)” value (37 °C) was -0.672 ± 0.33.
As for GAGUAGCAAUAUUACGUAAC, the “self-splicing fitness (ln)” value runs as follows: (30 °C) -2.12 ± 0.1; (37 °C) -2.95 ± 0.17.
The corresponding values for GAGUAGCAAUAUUACGUCUU are -1.94 ± 0.16 and -1.49 ± 0.17.
For GAUAAGCAAUAUUACGAGCG, the “self-splicing fitness (ln)” value (30 °C) is -1.25 ± 0.1 and the “self-splicing fitness (ln)” value (37 °C) is -0.755 ± 0.11.
The corresponding values for GAUAAGCAAUAUUACGAUGC are -0.7 ± 0.11 and -0.45 ± 0.11.
Turning to GAUAAGCAAUAUUACGCAAU, the “self-splicing fitness (ln)” value (30 °C) is -2.21 ± 0.13 and the “self-splicing fitness (ln)” value (37 °C) is -0.936 ± 0.16.
Regarding GAUAAGCAAUAUUACGCAGU, the “self-splicing fitness (ln)” value is, setting by setting: (30 °C) -2.94 ± 0.2; (37 °C) -1.65 ± 0.24.
On the same counts, the results for GAUAAGCAAUAUUACGCCAA are -1.91 ± 0.2 and -2.16 ± 0.22.
For GAUAAGCAAUAUUACGCCCC, the “self-splicing fitness (ln)” value is -2.27 ± 0.32 (30 °C) and -1.43 ± 0.33 (37 °C).
The corresponding values for GAUAAGCAAUAUUACGCCCG are -2.05 ± 0.2 and -0.456 ± 0.24.
As for GAUAAGCAAUAUUACGCCGC, under “37 °C”, the “self-splicing fitness (ln)” value is -1.99 ± 0.41.
For the sequence GAUAAGCAAUAUUACGCCGG, the “self-splicing fitness (ln)” value (30 °C) is -1.66 ± 0.2 and the “self-splicing fitness (ln)” value (37 °C) is -1.06 ± 0.14.

Values taken from the supplement of paper PMC7877785.
